{"source": "patent US20170306005A1", "about": "(NASCIENT, published 2017)", "binders": {"B1": {"name": "162_02_C6 human IgG4 (antibody, V domains shown)", "VH": "EVRLVQSGAEVKKPGASVKVSCKVSGYTLTELSMHWVRQAPGKGLEWMGGFDPEDGETIYAQKFQGRVTMTEDTSTDTAYMELSSLRSEDTAVYYCATAQKETYALTYWGQGTLVTVSS", "VL": "DIQMTQSPASLPTSVGDRVTITCRASQYIQGFLNWYQQKPGKAPRLLIYAASTLQDGVPSRFSGSGYGTDFTLTISSLQPEDFATYYCQNQYAGPWTFGQGTKVEIKR", "notes": "human IgG4 with hinge S241P; also called Antibody 162 02 C6 (derived from 2A5)"}, "B2": {"name": "162_02_F3 human IgG4 (antibody, V domains shown)", "VH": "B1 VH", "VL": "B1 VL with A93R", "notes": "human IgG4 with hinge S241P; also called Antibody 162 02 F3 (derived from 2A5)"}, "B3": {"name": "162_02_H5 human IgG4 (antibody, V domains shown)", "VH": "B1 VH", "VL": "B1 VL with A93T", "notes": "human IgG4 with hinge S241P; also called Antibody 162 02 H5 (derived from 2A5)"}, "B4": {"name": "161_01_A12 human IgG4 (antibody, V domains shown)", "VH": "B1 VH with K101P, E102T, T103A, Y104L, L106N", "VL": "B1 VL with N90Q, Q91S, A93S, G94T", "notes": "human IgG4 with hinge S241P; also called Antibody 161 01 A12 (derived from 2A5)"}, "B5": {"name": "162_02_D3 human IgG4 (antibody, V domains shown)", "VH": "B1 VH with K101I, E102H, T103P, Y104L, A105G", "VL": "B1 VL with N90Q, Q91S, A93S, G94T", "notes": "human IgG4 with hinge S241P; also called Antibody 162 02 D3 (derived from 2A5)"}, "B6": {"name": "161_01_H10 human IgG4 (antibody, V domains shown)", "VH": "B1 VH with K101P, E102V, T103W, Y104A, A105P, L106G", "VL": "B1 VL with N90Q, Q91S, A93S, G94T", "notes": "human IgG4 with hinge S241P; also called Antibody 161 01 H10 (derived from 2A5)"}, "B7": {"name": "165_13_D4 human IgG4 (antibody, V domains shown)", "VH": "QVQLVESGGGLVQPGRSLRLSCAASGFTFDDYAMHWVRQAPGKGLEWVSGISGSGGSTYYADSVKGRFTISRDNAKNSLYLQMNSLRAEDTALYYCAKGTVGEGDTFDIWGQGTMVTVSS", "VL": "DIQMTQSPASLPTPVGDRVTITCRASQYIQGFLNWYQQKPGKAPKLLIYDASNLETGVPSRFSGSGSGTDFTLTISSLQPEDFATYYCQQSYSTPQTFGQGTKVDIKR", "notes": "human IgG4 with hinge S241P"}}, "note": "Where a chain is given by its changes, count along the chain named. Numbers in names are those of the source.", "data": [{"biological_target": "T1, human tenascin-R rCd4-His-FBG (rat; human, UniProt P05540 207-392, limits assumed)", "T1 construct": "domain: domains 3 and 4; C-terminal FBG fusion; also called Hu TNR; human TNR rCd4-His-FBG; not shown: 6His tag", "T1 sequence (chain (part 1 of 2))": "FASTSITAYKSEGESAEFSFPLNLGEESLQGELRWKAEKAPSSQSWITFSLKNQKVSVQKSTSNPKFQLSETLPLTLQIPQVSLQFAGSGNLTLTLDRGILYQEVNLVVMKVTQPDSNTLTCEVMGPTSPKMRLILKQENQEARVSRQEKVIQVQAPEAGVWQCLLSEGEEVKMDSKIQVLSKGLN", "T1 sequence (chain (part 2 of 2))": "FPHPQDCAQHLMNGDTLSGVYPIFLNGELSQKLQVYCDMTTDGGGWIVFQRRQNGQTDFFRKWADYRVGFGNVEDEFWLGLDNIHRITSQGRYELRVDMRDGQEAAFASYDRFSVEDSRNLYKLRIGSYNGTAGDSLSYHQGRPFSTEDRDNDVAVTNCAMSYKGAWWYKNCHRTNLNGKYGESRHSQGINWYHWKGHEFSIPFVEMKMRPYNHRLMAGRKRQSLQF", "test": "SPR off-rate screen, captured IgG4 supernatant, 25 C", "method": "(§1) The 31 scFv of interest were sub-cloned into a human IgG4 expression vector for generation of antibodies as human IgG4 with a hinge-stabilising mutation (S241P; Angal et al, 1993). […] Briefly, surface plasmon resonance (SPR) experiments were performed using a BIAcore T100 instrument and followed the protocol according to the Human antibody capture kit protocol (GE, BR-1008-39). For off-rate screening, 10,000 response units (RU) of anti-human Fc IgG (GE, BR-1008-39) was immobilised on flow-cells (FC1 and FC2) of a Series 5 CM5 dextran sensor chip (BR-1005-30) using EDC/NHS cross-linking chemistry according to the amine coupling kit protocol (GE, BR-1000-50). Culture supernatants containing expressed IgG4 were diluted 1:2 with 2×PBS-T and injected into FC2 (flowrate 5 μl/min, 60 s contact time) to enable antibody capture at 25° C. […] A fixed concentration of antigen (15 nM of human and mouse TNC rCd4-His-FBG and 100 nM of human TNR rCd4-His-FBG) was injected with a flow-path via FC 1 (reference flow cell) and FC 2 (antibody capture flow cell), with a flow rate of 30 μl/min, and the association and dissociation phases measured over 1 and 5 min time periods, respectively. Regeneration of the binding surface employed 3M MgCl₂ with 30 s contact time. Off rates were determined by reference cell subtraction and fitting the sensogram experimental data assuming a 1:1 interaction using BIAevaluation software (GE, BR-1005-97).", "units": {"koff": "s⁻¹"}, "values": [{"binder": "B1", "koff": 0.028}, {"binder": "B2", "koff": 0.088}, {"binder": "B3", "koff": 0.082}, {"binder": "B4", "koff": 0.0042}, {"binder": "B5", "koff": 0.0064}, {"binder": "B6", "koff": 0.0091}, {"binder": "B7", "koff": 0.004}]}, {"biological_target": "T2, human tenascin-C rCd4-His-FBG (rat; human, UniProt P05540 207-392, limits assumed)", "T2 construct": "domain: domains 3 and 4; C-terminal FBG fusion; biotinylated in the ELISA and HTRF screens; also called Hu TNC; human TNC rCd4-His-FBG; not shown: 6His tag", "T2 sequence (chain (part 1 of 2))": "T1 sequence (chain (part 1 of 2))", "T2 sequence (chain (part 2 of 2))": "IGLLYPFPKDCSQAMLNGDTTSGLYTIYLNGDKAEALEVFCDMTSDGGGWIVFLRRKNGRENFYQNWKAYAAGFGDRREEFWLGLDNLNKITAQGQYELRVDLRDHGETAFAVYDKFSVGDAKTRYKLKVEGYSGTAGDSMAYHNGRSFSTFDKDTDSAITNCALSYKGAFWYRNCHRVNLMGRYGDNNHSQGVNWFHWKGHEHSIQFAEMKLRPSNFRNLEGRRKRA", "test": "SPR off-rate screen, captured IgG4 supernatant, 25 C", "method": "as §1", "units": {"koff": "s⁻¹"}, "values": [{"binder": "B1", "koff": "5.3e-06"}, {"binder": "B2", "koff": "< 1e-05"}, {"binder": "B3", "koff": "< 1e-05"}, {"binder": "B4", "koff": "1.3e-06"}, {"binder": "B5", "koff": "3.9e-07"}, {"binder": "B6", "koff": "2.5e-05"}, {"binder": "B7", "koff": "6.2e-07"}]}, {"biological_target": "T3, mouse tenascin-C rCd4-His-FBG (rat; mouse, UniProt P05540 207-392, limits assumed)", "T3 construct": "domain: domains 3 and 4; C-terminal FBG fusion; biotinylated in the ELISA screen; also called Mu TNC; mouse TNC rCd4-His-FBG; not shown: 6His tag", "T3 sequence (chain (part 1 of 2))": "T1 sequence (chain (part 1 of 2))", "T3 sequence (chain (part 2 of 2))": "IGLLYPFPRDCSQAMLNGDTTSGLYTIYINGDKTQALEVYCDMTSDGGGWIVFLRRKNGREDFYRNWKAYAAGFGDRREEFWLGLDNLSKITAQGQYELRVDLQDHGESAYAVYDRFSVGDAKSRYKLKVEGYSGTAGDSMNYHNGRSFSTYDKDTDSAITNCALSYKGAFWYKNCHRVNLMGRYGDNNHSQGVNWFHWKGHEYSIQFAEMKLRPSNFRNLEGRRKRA", "test": "SPR off-rate screen, captured IgG4 supernatant, 25 C", "method": "as §1", "units": {"koff": "s⁻¹"}, "values": [{"binder": "B1", "koff": 0.00024}, {"binder": "B2", "koff": 0.00033}, {"binder": "B3", "koff": 0.000167}, {"binder": "B4", "koff": "4.3e-06"}, {"binder": "B5", "koff": "1.06e-06"}, {"binder": "B6", "koff": "1.9e-06"}, {"binder": "B7", "koff": "3.7e-06"}]}]}
